The values below come from patent publication EP3574020B1.

Test [1] deals with T1, cyclo(CGHHQKG) cyclic peptide, conjugated to BSA.
T1 sequence (peptide, cyclized peptide, cyclo(CGHHQKG); conjugated to BSA): CGHHQKG
Description: MAAS-2 SPR; antibody immobilized, cyclopeptide-BSA at pH 6.5, 7.5 or 8.0.

The target of test [2] is A-beta oligomers in the low molecular weight (LMW, ~8-70 kDa) fraction of soluble human AD brain extract (human) (UniProt P05067). Description: SPR; antibody immobilized, SEC fraction at 100ug/ml.
Test [3] concerns the target A-beta42 Oligomer (synthetic) (human). Nature of the test: SPR; purified antibody immobilized, A-beta injected.
The target in test [4] is A-beta42 Monomer (human). The test is described as above.
The target of test [5] is A-beta42 Monomer (human). Nature of the test: SPR direct binding; hybridoma supernatant over immobilized A-beta42 monomer.
Test [6] has as its target A-beta42 Oligomer (synthetic) (human). Description: SPR direct binding; hybridoma supernatant over immobilized A-beta42 oligomer.
Test [7] has as its target commercially-prepared stable A-beta42 Oligomers (SynAging) (human). Nature of the test: SPR; antibody covalently immobilized, stable A-beta42 oligomers at 1 microM.
Test [8] deals with T1, cyclo(CGHHQKG) cyclic peptide, conjugated to BSA. Nature of the test: SPR direct binding; hybridoma supernatant over immobilized BSA-conjugated peptide.
Test [9] has as its target T2, linear CGHHQKG peptide, conjugated to BSA.
T2 sequence (peptide, conjugated to BSA): CGHHQKG
The test is described as above.

Sequence of A-beta42 Oligomer (synthetic) (human) (peptide, as listed by the source): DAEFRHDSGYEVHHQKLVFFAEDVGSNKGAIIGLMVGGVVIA
Sequence of A-beta42 Monomer (human) (peptide, as listed by the source): as above
Sequence of A-beta oligomers in the low molecular weight (LMW, ~8-70 kDa) fraction of soluble human AD brain extract (human) (P05067 672-713): as the sequence (peptide, as listed by the source) above
Sequence of commercially-prepared stable A-beta42 Oligomers (SynAging) (human) (peptide, as listed by the source): as above

B1: Recombinant 301-17 IgG1 (murine IgG1 backbone) (antibody, V domains shown)
VH: QVQLQQPGAELVKPGASVKMSCKASGYSFTSYWINWVKQRPGQGLEWIGDVHPGRGVSTYNAKFKSKATLTLDTSSSTAYMQLSSLTSEDSAVYYCSRSHGNTYWFFDVWGAGTTVTVSS
VL: DVLMTQTPLSLPVSLGDQASISCRSSQSIVHSNGNTYLEWYLQKPGQSPKLLIYKVSNRFSGVPDRFSGSGSGTDFTLKISRVEAEDLGVYYCFQGSHVPFTFGSGTKLEIKR
In test [1], B1 registered a BRU of 400 BRU.

B2: Humanized antibody of 301-17 (VH2 Vk5), human IgG4 (S241P hinge variant) / kappa (antibody, V domains shown)
VH: QVQLVQSGAEVKKPGASVKMSCKASGYSFTSYWINWVKQRPGQGLEWIGDVHPGRGVSTYNAKFKSRATLTLDTSISTAYMELSSLRSEDTAVYYCSRSHGNTYWFFDVWGQGTTVTVSS
VL: DVLMTQSPLSLPVTLGQPASISCRSSQSIVHSNGNTYLEWYQQRPGQSPRLLIYKVSNRFSGVPDRFSGSGSGTDFTLKISRVEAEDVGVYYCFQGSHVPFTFGQGTKLEIKR
Molecule B2 showed a fold binding response against aducanumab in test [2] of 1.5 to 2 fold.

B3: 301-17 mouse monoclonal antibody, hybridoma-purified IgG3 (antibody, V domains shown)
VH: QVQLQQPGAELVKPGASVKMSCKASGYSFTSYWINWVKQRPGQGLEWIGDVHPGRGVSTYNAKFKSKATLTLDTSSSTAYMQLSSLTSEDSAVYYCSRSHGNTYWFFDVWGAGTTVTVSSATTTAPS
VL: DVLMTQTPLSLPVSLGDQASISCRSSQSIVHSNGNTYLEWYLQKPGQSPKLLIYKVSNRFSGVPDRFSGSGSGTDFTLKISRVEAEDLGVYYCFQGSHVPFTFGSGTKLEIKRADA
As for B3, the RU in test [3] is 148 RU.

B4: 301-11 mouse monoclonal antibody (IgG3, kappa) (antibody, V domains shown)
VH: EVQLVESGGGLVKPGGSLKLSCAASGFTFSDYYMYWVRQTPEKRLEWVATISDGGSYTSYPDSVKGRFTISRDNAKNNLYLQMSSLRSEDTAMYYCARDYYGSSSYTSGFAYWGQGTLVTVSA
VL: DIVMSQSPSSLAVSTGEKVTMSCKSSQSLLNSRTRKNYLAWYQQKPGQSPKLLIYWASTRESGVPDRFTGSGSGTDFTLTISSVQAEDLAVYYCKQSYNLYTFGGGTKLEIK
On to B4, for which the RU in [4] is -14.1 RU; in [3], -2.8 RU; in test [5], 21.6 RU; in test [6], 75.3 RU; in test [8] it was 488 RU; in test [9], 210 RU. The molecule further registered a binding response units (BRU), average in test [7] of 19.3 BRU.
